Test results from PMC8509707.

Molecular target: Recombinant His-tagged C-terminal ^ECFTO domain (CD-FTO) (human)
Test: SEC; ^BTCaM (7.6 µM) and/or CD-FTO (15.2 µM), 10 min at 4 °C, SEC650 column in SEC1 buffer (50 mM MES pH 6.5, 150 mM NaCl, 10% glycerol, 1 mM 2-OG, 0.5 mM MnCl2, 0.5 mM CaCl2)

“Recombinant His-tagged C-terminal ^ECFTO domain (CD-FTO) (domain or fragment)” showed a stoichiometry N of 2.
